B1: LjFNSII-1.1 (Lonicera japonica; S122A) (protein)
chain: MWIFDLTISFTTLLFLIFTTALLLLLKVFKKNHKLRPPPSPFTLPIIGHLHLLGPLIHQSFHRLSTLYGPLIQLKIGYIPCVVASTPELAKEFLKTHELAFSSRKHSAAIKLLTYDVSFAFAPYGPYWKFIKKTCTFELLGTRNMNHFLPIRTNEIRRFLQVMLEKAKASEGVNVTEELIKLTNNVISQMMFSTRSSGTEGEAEEMRTLVREVTQIFGEFNVSDFIKLCKNIDIGGFKKRSKDIQKRYDALLEKIISERESERARRGKNRETLGEEGGKDFLDMMLDTMEDGKCEVEITRDHIKALVLDFLTAATDTTAIAVEWTLAELISNPEVFDKAREEIDKVVGKHRLVTELDTPNLPYIHAIIKESFRLHPPIPLLIRKSVQDCTVGGYHISANTILFVNIWAIGRNPKYWESPMKFWPERFLESNGPGPVGSMDIKGHHYELLPFGSGRRGCPGMALAMQELPVVLAAMIQCFNWKPVTLDGEELDMSERPGLTAPRAHDLVCVPSARINSFDNF
B2: LjFNSII-1.1 (Lonicera japonica) (protein)
chain: MWIFDLTISFTTLLFLIFTTALLLLLKVFKKNHKLRPPPSPFTLPIIGHLHLLGPLIHQSFHRLSTLYGPLIQLKIGYIPCVVASTPELAKEFLKTHELAFSSRKHSAAIKLLTYDVSFAFSPYGPYWKFIKKTCTFELLGTRNMNHFLPIRTNEIRRFLQVMLEKAKASEGVNVTEELIKLTNNVISQMMFSTRSSGTEGEAEEMRTLVREVTQIFGEFNVSDFIKLCKNIDIGGFKKRSKDIQKRYDALLEKIISERESERARRGKNRETLGEEGGKDFLDMMLDTMEDGKCEVEITRDHIKALVLDFLTAATDTTAIAVEWTLAELISNPEVFDKAREEIDKVVGKHRLVTELDTPNLPYIHAIIKESFRLHPPIPLLIRKSVQDCTVGGYHISANTILFVNIWAIGRNPKYWESPMKFWPERFLESNGPGPVGSMDIKGHHYELLPFGSGRRGCPGMALAMQELPVVLAAMIQCFNWKPVTLDGEELDMSERPGLTAPRAHDLVCVPSARINSFDNF
B3: LjFNSII-2.1 (Lonicera japonica) (protein)
chain: MWIFDLTISFTTLLFLIFTTALLLLLKVFKKNHKLRPPPSPFTLPIIGHLHLLGPLIHQSFHRLSTLYGPLIQLKIGYIPCVVASTPELAKEFLKTHELAFSSRKHSAAIKLLTYDVSFAFSPYGPYWKFIKKTCTFELLGTRNMNHFLPIRTNEIRRFLQVMLEKAKASEGVNVTEELIKLTNNVISQMMFSTRSSGTEGEAEEMRTLVREVTQIFGEFNVSDFIKLCKNIDIGGFKKRSEDIQKRYDALLEKIISERESERARRGKNRETLGEEGGKDFLDMMLDTMEDGKCEVEITRDHIKALVLDFLTAATDTTAIAVEWTLAELISNPEVFDKAREEIDKVVGKHRLVTELDTPNLPYIHAIIKESFRLHPPIPLLIRKSVQDCTVGGYHISANTILFVNIWAIGRNPKYWESPMKFWPERFLESNGPGPVGSMDIKGHHYELLPFGSGRRGCPGMALAMQELPVVLAAMIQCFNWKPVTLDGEELDMSERPGLTAPRAHDLVCVPSARINSFDNF
B4: LmFNSII-1.1 (Lonicera macranthoides; V204M) (protein)
chain: MLIFDLTISFTTLLFLIFTTALLLKVFKKNHKLQPPPSPFTLPIIGHLHLLGPLIHQSFHRLSTLYGPLIQLKIGYIPCVVASTPELAKEFLKTHELAFSSRKHSAAIKLLTYDVSFAFAPYGPYWKFIKKTCTFELLGTRNMNHFLPIRTNEIRRFLQVMLEKAKASEGVNVTEELIKLTNNVISQMMFSTRSSGTEGEAEEMRTLVREVTQIFGEFNVSDFIKLCKNIDIGGFKKRSEDIQKRYDALLEKIISERESERARRGKNRETLGEEGGKDFLDMMLDTMEDGKCEVEITRDHIKALVLDFLTAATDTTAIAVEWTLAELISNPEVFDKAREEIDKVVGKHRLVTELDTPNLPYIHAIIKESFRLHPPIPLVIRKSVQDCTVGGYHISANTILFINIWAIGRNPKYWESPMKFWPERFLESNEPGSVGSTDIKGHHYELLPFGSGRRGCPGMALAMQELPVVLAAMIQCFNWKPVTLDGEELDMSERPGLTAPRAHDLVCVPSARINSFDNF
B5: LmFNSII-1.1 (Lonicera macranthoides) (protein)
chain: MLIFDLTISFTTLLFLIFTTALLLKVFKKNHKLQPPPSPFTLPIIGHLHLLGPLIHQSFHRLSTLYGPLIQLKIGYIPCVVASTPELAKEFLKTHELAFSSRKHSAAIKLLTYDVSFAFAPYGPYWKFIKKTCTFELLGTRNMNHFLPIRTNEIRRFLQVMLEKAKASEGVNVTEELIKLTNNVISQMMFSTRSSGTEGEAEEVRTLVREVTQIFGEFNVSDFIKLCKNIDIGGFKKRSEDIQKRYDALLEKIISERESERARRGKNRETLGEEGGKDFLDMMLDTMEDGKCEVEITRDHIKALVLDFLTAATDTTAIAVEWTLAELISNPEVFDKAREEIDKVVGKHRLVTELDTPNLPYIHAIIKESFRLHPPIPLVIRKSVQDCTVGGYHISANTILFINIWAIGRNPKYWESPMKFWPERFLESNEPGSVGSTDIKGHHYELLPFGSGRRGCPGMALAMQELPVVLAAMIQCFNWKPVTLDGEELDMSERPGLTAPRAHDLVCVPSARINSFDNF

Tests used:
Assay in all cases: cells, lysate or membranes
[1] = substrate: O=C1C[C@@H](c2ccc(O)c(O)c2)Oc2cc(O)cc(O)c21; settings: NADPH, potassium phosphate, product luteolin
[2] = substrate: O=C1C[C@@H](c2ccc(O)cc2)Oc2cc(O)cc(O)c21; settings: apparent Km; NADPH, potassium phosphate, optimized conditions (about pH 7.5, 37 °C); product apigenin; pH 7.5; 37.0 °C
[3] = substrate: O=C1C[C@@H](c2ccc(O)cc2)Oc2cc(O)ccc21; settings: apparent Km; NADPH, potassium phosphate, optimized conditions (about pH 7.5, 37 °C); product 7,4'-dihydroxyflavone; pH 7.5; 37.0 °C
[4] = apparent Km, optimized conditions (about pH 7.5, 37 °C), pH 7.5, 37.0 °C

Protein | Km ([1]; optimized conditions) [µM] | kcat ([1]; optimized conditions) [s⁻¹] | Km [2] | Vmax [2] [µM/min] | kcat [2] [s⁻¹] | kcat/Km [2] [M⁻¹ s⁻¹] | Km [1, 4] | Vmax [1, 4] [µM/min] | kcat [1, 4] [s⁻¹] | kcat/Km [1, 4] [M⁻¹ s⁻¹] | Km [3] | Vmax [3] [µM/min] | kcat [3] [s⁻¹] | kcat/Km [3] [M⁻¹ s⁻¹]
B1 | 10.53 ± 1.18 | 6.08 ± 0.5 | – | – | – | – | – | – | – | – | – | – | – | –
B2 | – | – | 9.93 (0.64) μM | 0.166 | 1.59 | 160000 | 5.07 (0.05) μM | 0.267 | 2.56 | 504000 | 6.48 (0.26) μM | 0.461 | 4.41 | 681000
B3 | – | – | 1.63 (0.06) μM | 0.0288 | 0.28 | 170000 | 2.05 (0.04) μM | 0.0984 | 0.94 | 460000 | 2.56 (0.03) μM | 0.124 | 1.18 | 462000
B4 | 8.47 ± 0.52 | 5.08 ± 0.30 | – | – | – | – | – | – | – | – | – | – | – | –
B5 | – | – | 1.63 (0.12) μM | 0.021 | 0.2 | 122000 | 3.09 (0.17) μM | 0.0462 | 0.44 | 142000 | 2.38 (0.07) μM | 0.0738 | 0.7 | 295000
